Experimental data taken from patent US20020128175A1.

Target: low density lipoprotein (LDL) from human plasma (human) (UniProt P04114)
Test: agarose gel, stained bands excised and counted with 125I-labeled peptide

stoichiometry (molecules of peptide per LDL) (molecules of peptide per LDL): 30
Binder: Ac-LRKLRKRLLRDWLKAFYDKVAEKLKEAF-NH2 (also: 125I-labelled where stoichiometry was determined) [Ac-hE18A-NH2 (end protected analog of hApoE[141-150]-18A)]
